{"source": "patent US20230365705A1", "about": "(DYNAMICURE BIOTECHNOLOGY, published 2023)", "key": {"[1]": {"target": "T1, Human CD93 recombinant protein (Sino Biological Inc, Catalog #12589-H08H) (human, UniProt Q9NPY3 22-580)", "T1 construct": "Biotinylated (EZ-LINK NHS-PEG4 biotin) in the BLI assays; also called hCD93; His-tagged human CD93", "T1 sequence (looked up)": "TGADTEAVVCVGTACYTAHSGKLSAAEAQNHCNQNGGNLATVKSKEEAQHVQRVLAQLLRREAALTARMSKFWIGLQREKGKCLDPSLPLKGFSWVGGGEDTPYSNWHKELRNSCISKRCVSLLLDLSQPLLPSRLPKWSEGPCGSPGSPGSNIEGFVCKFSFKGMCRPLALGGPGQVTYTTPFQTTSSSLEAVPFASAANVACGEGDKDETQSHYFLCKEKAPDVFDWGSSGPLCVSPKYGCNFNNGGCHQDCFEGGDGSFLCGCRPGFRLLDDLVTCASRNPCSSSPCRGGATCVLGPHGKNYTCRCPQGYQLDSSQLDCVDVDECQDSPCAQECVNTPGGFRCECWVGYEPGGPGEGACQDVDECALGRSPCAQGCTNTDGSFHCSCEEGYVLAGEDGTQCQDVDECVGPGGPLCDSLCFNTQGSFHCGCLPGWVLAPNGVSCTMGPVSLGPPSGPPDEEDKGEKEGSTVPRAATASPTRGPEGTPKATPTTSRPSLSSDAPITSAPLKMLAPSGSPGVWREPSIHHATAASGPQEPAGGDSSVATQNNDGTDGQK", "test": "BLI (Octet QKe), biotinylated human CD93 on streptavidin biosensors; antibody stored 4 weeks at 40 C", "procedure": "The binding affinity of anti-CD93 antibodies was determined with bio-layer interferometry using Octet QKe (Fortebio). […] Human CD93 recombinant protein (Sino Biological Inc, Catalog #12589-H08H) was biotinylated using EZ-LINK NHS-PEG4 biotin (Thermo Fisher Scientific). Streptavidin biosensors (Fortebio) were used to load biotinylated CD93 protein (300 seconds in 5 μg/ml). Baseline was stabilized for 60 seconds in 1× kinetics buffer (Fortebio) before anti-CD93 antibodies, at a serial dilution, were allowed to associate for 300 seconds with captured protein. Then the sensors were dissociated in 1× kinetics buffer for 600 seconds. […] (FIG. 42)."}, "[2]": {"target": "T2, Human CD93 on cells (human CD93 expressing CHO cells; HUVEC, U937 and KG1a cells) (human, UniProt Q9NPY3 22-652)", "T2 construct": "whole, on cells; also called hCD93 expressing CHO cells; hCD93 CHO cells", "T2 sequence (looked up)": "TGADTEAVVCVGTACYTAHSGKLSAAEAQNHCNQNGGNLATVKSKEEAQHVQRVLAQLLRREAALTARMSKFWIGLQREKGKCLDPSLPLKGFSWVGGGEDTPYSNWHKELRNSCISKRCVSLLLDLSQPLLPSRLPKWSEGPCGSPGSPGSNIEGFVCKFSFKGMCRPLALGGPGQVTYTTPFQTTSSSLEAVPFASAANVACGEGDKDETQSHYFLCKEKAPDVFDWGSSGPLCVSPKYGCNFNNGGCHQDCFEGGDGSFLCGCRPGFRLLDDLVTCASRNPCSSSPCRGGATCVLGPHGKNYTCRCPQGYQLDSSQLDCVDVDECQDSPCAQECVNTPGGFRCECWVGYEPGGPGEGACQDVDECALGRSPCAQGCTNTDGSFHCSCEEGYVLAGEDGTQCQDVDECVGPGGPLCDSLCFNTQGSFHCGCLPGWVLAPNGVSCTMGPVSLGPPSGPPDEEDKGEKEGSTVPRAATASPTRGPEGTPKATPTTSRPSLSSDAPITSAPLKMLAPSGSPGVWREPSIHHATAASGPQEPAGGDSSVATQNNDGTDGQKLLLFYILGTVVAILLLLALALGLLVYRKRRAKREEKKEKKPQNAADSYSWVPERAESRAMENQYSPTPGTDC", "test": "flow cytometry, CHO-hCD93 cells, APC-A"}, "[3]": {"target": "T1, Human CD93 recombinant protein (Sino …)", "test": "BLI (Octet QKe), biotinylated human CD93 on streptavidin biosensors; antibody stored 2 weeks at 40 C", "procedure": "(§1) The binding affinity of anti-CD93 antibodies was determined with bio-layer interferometry using Octet QKe (Fortebio). […] Human CD93 recombinant protein (Sino Biological Inc, Catalog #12589-H08H) was biotinylated using EZ-LINK NHS-PEG4 biotin (Thermo Fisher Scientific). Streptavidin biosensors (Fortebio) were used to load biotinylated CD93 protein (300 seconds in 5 μg/ml). Baseline was stabilized for 60 seconds in 1×kinetics buffer (Fortebio) before anti-CD93 antibodies, at a serial dilution, were allowed to associate for 300 seconds with captured protein. Then the sensors were dissociated in 1× kinetics buffer for 600 seconds. […] (FIG. 41)."}, "[4]": {"target": "T1, Human CD93 recombinant protein (Sino …)", "test": "BLI (Octet QKe), biotinylated human CD93 on streptavidin biosensors; antibody stored 4 weeks at 40 C", "procedure": "as §1", "remark": "listed apart in the source"}, "[5]": {"target": "T2, Human CD93 on cells (human CD93 …)", "test": "flow cytometry titration, CHO-hCD93 cells; antibody stored 2 weeks at 40 C", "procedure": "Human CD93 expressing CHO cells were detached by incubation with TrypLE reagents (Thermo Fisher), which preserves the integrity of CD93 on the cell surface. Then the cells were incubated with serial diluted anti-CD93 antibodies for 30 minutes in 4° C. After washing by FACS buffer, the cells were incubated with Alexa Fluor 647 conjugated anti-human IgG (Jackson ImmunoResearch) for 30 minutes at 4° C. After washing by FACS buffer twice, the samples were acquired in NovoCyte Flow Cytometer and analyzed by NovoExpress software."}, "[6]": {"target": "T2, Human CD93 on cells (human CD93 …)", "test": "flow cytometry blocking assay, HUVEC cells; blocked ligand hIGFBP7-His 0.1 ug/ml; blocking activity runs from about 46 to about 72 % of control", "procedure": "After washing with FACS buffer twice, the samples were analyzed and data acquired in NovoCyte Flow."}}, "data": [{"binder": "h16E4 (humanized 16E4, VH4+VL6) (antibody, V domains shown, Detected with anti-human IgG, so a human Fc) VH: QVQLVQSGAEVKKPGASVKVSCKASGYTFTSYWMHWVRQAPGQGLEWMGEIDPSASYTYYNQKFKGRVTMTRDKSSSTVYMELSSLTSEDSAVYYCARSVYYGNKYFDVWGAGTTVTVSS VL: DIQMTQSPSTLSASVGDRVTITCKASQSVDYAGDSYMNWYQQKPGKAPKLLIYAASNLESGVPSRFSGSGSGTEFTLTISSLQPDDFATYYCQQTNEDPRTFGGGTKLEIK", "values": [{"measurement": "Kd", "setting": "[1]", "result": 0.112, "unit": "nM"}, {"measurement": "koff", "setting": "[1]", "result": "3.24e-05", "unit": "s⁻¹"}, {"measurement": "kon", "setting": "[1]", "result": 289000, "unit": "M⁻¹ s⁻¹"}]}, {"binder": "16E4 (hybridoma) (antibody, IgG2a, V domains shown, also called 16E4 mAb; 16E4 mIgG2a) VH: QVQLQQPGAELVKPGASVKLSCKASGYTFTSYWMHWVKQRPGQGLEWIGEIDPSASYTYYNQKFKGKATLTVDKSSSTAYMQLSSLTSEDSAVYYCARSVYYGNKYFDVWGAGTTVTVSS VL: not shown", "values": [{"measurement": "M3 gate, % of cells", "setting": "[2]", "result": 98.7, "unit": "%"}]}, {"binder": "h7F3 (humanized 7F3, VH3+VL3) (antibody, human IgG1, V domains shown, also called humanized 7F3-hIgG1) VH: QVQLVQSGAEVKKPGASVKVSCKASGYTFTDYEMHWVRQAPGQGLEWMGGIDPETGDTAYNQNFKGRVTMTTDTSTSTAYMELRSLTSDDTAVYYCTNYGNLYYYAMDYWGQGTSVTVSS VL: EIVLTQSPSSLSASVGDRVTITCRASSSVSSSYLHWYQQKPGKAPKLLIYSTSNLAFGVPSRFSGSGSGTSYTFTISSLQPEDIATYYCQQYSGYPLTFGSGTKLEIK", "values": [{"measurement": "Kd", "setting": "[3]", "result": 0.495, "unit": "nM"}, {"measurement": "koff", "setting": "[3]", "result": 0.000356, "unit": "s⁻¹"}, {"measurement": "kon", "setting": "[3]", "result": 720000, "unit": "M⁻¹ s⁻¹"}, {"measurement": "Kd", "setting": "[4]", "result": 0.487, "unit": "nM"}, {"measurement": "koff", "setting": "[4]", "result": 0.000386, "unit": "s⁻¹"}, {"measurement": "kon", "setting": "[4]", "result": 793000, "unit": "M⁻¹ s⁻¹"}, {"measurement": "EC50", "setting": "[5]", "result": 0.194, "unit": "nM"}, {"measurement": "IC50", "setting": "[6]", "result": 1, "unit": "nM"}]}]}
